Results taken from the supplement of paper PMC9170038.

system: MS2 coat protein; assay: apparent KD of MS2 coat protein, switch ON state; designed switch direction (-1 OFF switch, 1 ON switch): 1; higher = weaker reporter binding; details: FMN input: 0 or 200 uM; Eterna round: R93 (includes R88 designs)
Summary of the method: (§1)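 With or without constant ligand, designed RNA switches in 100 mM Tris-HCl pH 7.5, 80 mM KCl and 4 mM MgCl2 were titrated with SNAP-549-labelled MS2 coat protein. Concentrations went up in twofold steps from 0.7 or 1.5 nM to 3 µM. The switches had been transcribed on-chip from Illumina sequencing clusters, and apparent KD is the per-design median of normalised cluster binding-curve fits.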

Point of comparison: “GAAAAACAUGAGGAUCACCCAUGUGGAAAUAUGGAAGGAUAUACAAAGACGAGAGUCAAAGUAGAAGGUCUAAAAG [Mat - Same State 1 - Eli mod - D20]”, “apparent KD of MS2 coat protein” value 17.3 nM. Against it:
- AGAAAUAAAAGAGAGGAUAUCCAAAAGAAAACAUGAGGAUCACCCAUGUAAAAGAAAAUAAAAUGGGAGAAGGCUCACAUAAAGA [Topaz 34] — within 1.5-fold, 21.1 nM
- AUGGUCAAGUGUGAGGAUAUCCAGGCUCCCACAUGAGGAUCACCCAUGUCUUAAAGGGCGUAAAGGGAGAAGGUACGAACGCCAC [Diatenat] — 2.1-fold higher, 35.6 nM
- AAGAAACAUGAGGAUCACCCAUGUAAGAUAAACACAGGAUAUGCGAAAGAAACAAAAGAAGCAGAAGGGUGAAGAA [Mat - Same State 1 - Tesla mod - D146] — within 1.5-fold, 17.1 nM
- AAUAUACAUGAGGAUCACCCAUGUUAGGUGGGUCAAGGAUAUCAAUAUAAAUAAAAAACUUGAGAAGGUGAAUAAA [JR_SS001_Sub019] — 7.7-fold higher, 133 nM
- AAAAAACAUGAGGAUCACCCAUGUAAUACAACAUCAGGAUAUUGGCUUUACUAUGUAUUACAAGAAGGGAUGAAAA [Same State 1.3c (Same State 1 - Omei 2 )] — 9.9-fold higher, 171 nM
- AAUAUACAUGAGGAUCACCCAUGUUAGGUGGGACUAGGAUAUCAAAAUAAAUAAUGAACAUGAGAAGGAGUAUCAA [JR_SS001_Sub402] — 7.5-fold higher, 130 nM
- UAUUAUUACACGAAGGAUAUCGAUAAUAGUACAUGAGGAUCACCCAUGUUCAAAUCAUUUUAGUACGAGAAGGUCGAGGGUAAAG [JR_SS002_Sub710] — within 1.5-fold, 19.4 nM
- AAAAAAUAAAAAAAGGAUAUAAAUGGUACAACAUGAGGAUCACCCAUGUAGUACCAAAAAAUAAAAAAGAAGGAAAAAUAAAAAA [SS2: MS2 22] — within 1.5-fold, 20.8 nM
- AAUAAUUAUAGCAAGGAUAUCGGUAUAAAGACAUGAGGAUCACCCAUGUAAUAUGGUUAAAUUUACGAGAAGGUGCAGGGUGAAA [JR_SS002_Sub009] — 9.8-fold higher, 170 nM
- AAGAAACAUGAGGAUCACCCAUGUAGAAAUAUGGGAGGAUAUACAAGGACGGAAGUCAAGGUAGAAGGCCUAAGAA [Mat - Same State 1 - Meechl mod - D133] — 1.5-fold higher, 26.7 nM
- AAAAAACAUGAGGAUCACCCAUGUCAAAAGACGUGAGGAUAUGUACAGACUUCGGUCUGUACAGAAGGCACAAAAA [SS1 - 1031] — within 1.5-fold, 17.2 nM
- GUAGAACAUGAGGAUCACCCAUGUGAGUACAGUGUAGGAUAUGGGCAUGAGAAGUCAUUUCUAGAAGGGCAAAUAA [Raatbiin] — 12-fold higher, 207 nM
- AAGAAAGAAACAUAGGAUAUCAAGGAUAUAACAUGAGGAUCACCCAUGUAAAUACGAAAGUAUAAUGAGAAGGAUGGAUGAUCUAC [Meechl MS2 SS2 3] — 12-fold higher, 200 nM
- AACAAUCUAUCUGAGGAUAUGUGUCGAAAGACAUGAGGAUCACCCAUGUAAAAACAUGAAAAGAUACAGAAGGCAGAUAGAUUGA [SS2: 1156] — within 1.5-fold, 18.1 nM
- UAAUAAUAAACCAAGGAUAUGGAGUAUAGAACAUGAGGAUCACCCAUGUGUAGCGUGGAAUAGUACCAGAAGGUGGAGUGAAAUG [JR_SS002_Sub1002] — 2.3-fold higher, 39.1 nM
- GAAAAACAUGAGGAUCACCCAUGUGAAAAUAUGGGAGGAUAUACAAAGACGAAAGUCAAAGUAGAAGGCCUAAAAG [Mat - Same State 1 - Eli mod - D3] — within 1.5-fold, 23.5 nM
- AAAUAACAUGAGGAUCACCCAUGUUGCAACGGUAGAGGAUAUGUGGGUGAAAAUAGCAUGGCAGAAGGCUAGUGUA [SameState1 Malc#28] — 9.9-fold higher, 172 nM
- AAAAAACAUGAGGAUCACCCAUGUCCUCGGACGUGAGGAUAUGUACAGACUUCGGUCUGUACAGAAGGCAUGAAAA [SS1 - 1059] — 25-fold higher, 432 nM
- AAGAAACAUGAGGAUCACCCAUGUACCCAAAAGGGAGGAUAUGCGAAAGAAAGAAAGAAAGCAGAAGGCCCAUGAA [Artaxerxes I Longhand] — within 1.5-fold, 13.9 nM
- UUACAGUGCGGGUAGGAUAUGUAGGGUGGUACAUGAGGAUCACCCAUGUAUCCACCCUUCGACCGGCAGAAGGGCCUGUCACUAC [Atarzale] — within 1.5-fold, 12 nM
- AGAAAUAAAAGAGAGGAUAUUCAAAAGAAAACAUGAGGAUCACCCAUGUAAAAGAAAAUAAAUGGGAAGAAGGCUCAAAAUAAAG [Modifying JL's highscorer - Moving the G segment - Variant 2] — within 1.5-fold, 24.8 nM
- AAAGACAUGGUGUAGGAUAUAUUAAUAGUCACAUGAGGAUCACCCAUGUUCAUAUAUAUGAACGAGUAGAAGGACGAUGAAAAAA [SameState2 Malc#3] — 29-fold higher, 497 nM
- AAAGAAUGAAGGCAGGAUAUGUGAAAAAAAACAUGAGGAUCACCCAUGUAAUAGAUGGUGAAAAGGCAGAAGGGCCAAGAAACAA [SS 2 Tesla 6] — within 1.5-fold, 12.4 nM
- GGGAGACAUGAGGAUCACCCAUGUGAGAAGAGGCGAGGAUAUCGAAAGAAAGAAGAGAAACGAGAAGGCGCGAGGC [salish99-SS1-063] — 2.2-fold higher, 37.5 nM
- AGAAAUAAAAGGGAGGAUAUUCAAAAAGGGACAUGAGGAUCACCCAUGUAAAAGAAAAUAAAAUGGGAGAAGGCUCAAAAUAAAG [80%, More Helter Skelter 2] — 65-fold higher, 1130 nM

system: MS2 coat protein; assay: apparent KD of MS2 coat protein, switch ON state; designed switch direction (-1 OFF switch, 1 ON switch): -1; higher = weaker reporter binding; details: FMN input: 0 or 200 uM; Eterna round: R93 (includes R88 designs)
Summary of the method: as §1

Point of comparison: “AAGGGACAUGAGGAUCACCCAUGUCAGGAUAUGCUAUGGAAAAUAAAAAUAAAACAUAGCAGAAGGGACAAAAA [Denovo 4]”, “apparent KD of MS2 coat protein” value 38.5 nM. Against it:
- AAAUAGUUAGGAUAUACAUGAGGAUCACCCAUGUGGACUUAUGGAGAAUAGUUUAAUGGUAGAAGGGACUAAAA [EX2 Malc#25] — within 1.5-fold, 52.8 nM
- AGCUGGUUAGGAUAUACAUGAGGAUCACCCAUGUUAAAAAAAAAAAAAAGAUUAAAGUGUAGAAGGGAUUAGUA [Banishment 9 - Jieux - Exclusion 3] — within 1.5-fold, 29.3 nM
- AAGAAGACAGGAUAUACUAAAGAAAUGAAAAGAAAGAAAGAACAUGAGGAUCACCCAUGUAGAAGGGUCAAGAA [Sewahenre Senebmiu] — 1.7-fold higher, 66.2 nM
- AAAGGACGAGGAUAUACAUGAGGAUCACCCAUGUAAAAAACGUAAUAAAAGAACUUAUGUAGAAGGCGUCCAAA [69%, Moding Meechl, 7] — 1.6-fold higher, 60.9 nM
- CGUUGGCGAGGAUAUACAUGAGGAUCACCCAUGUGAGAGAAAAAAGUGAGAAAGAAAAGUAGAAGGCGCUGACA [salish99-ex3-11] — within 1.5-fold, 45.3 nM
- AGUUGGCGAGGAUAUACAUGAGGAUCACCCAUGUGAGAGUAAAAAGUGAGAAAGAAAAGUAGAAGGCGCUCACA [JL Lego Mod 14] — 2-fold higher, 77.5 nM
- UCCUGACAUGAGGAUCACCCAUGUCAGGAUAUAGUAUGAAAAAAAAAAAAAAAAAAUACUAGAAGGGACAUGGG [Design 12: Super Stable Short Helix 3] — within 1.5-fold, 29.2 nM
- GAAAAGUGAGGAUAUGUCAAAAGUCACAAAAGUGACAAAAGACAGAAGGCACAUGAGGAUCACCCAUGUGAAAG [Mat - Exaclusion 4 - Eli mod - D54] — 1.6-fold lower, 24.7 nM
- AAAAAGUGAGGAUAUGCGAAGGCGUCUGAUAGACGAGGCUAGCAGAAGGCACAUGAGGAUCACCCAUGUGGGAG [Mat - Exclusion 4 - Eli mod - D93] — 1.9-fold higher, 71.5 nM
- AAAGUACAUGAGGAUCACCCAUGUCAGGAUAUCGUGGCGGGAAAAACCGGGAAACGCACGAGAAGGGACAAAAA [EX1 Malc#18 Mod 13 - Jieux - Exclusion 1] — within 1.5-fold, 36.2 nM
- GGUUGAUGAGGAUAUACAUGAGGAUCACCCAUGUGAGAGAAAAAAGUGAGAAAGAAAAGUAGAAGGCAUUGACG [salish99-ex3-60] — within 1.5-fold, 37.7 nM
- AAAAAGGGAGGAUAUACAUGAGGAUCACCCAUGUAAAAAAACGCGGGAGGGAGGGAAGGUAGAAGGCCCAAAAA [Excls3-IV] — 1.9-fold lower, 20.3 nM
- CUCAAGUGAGGAUAUACAAAAAGUAAAUAAGUAAAACAAAAGUAGAAGGCACAUGAGGAUCACCCAUGUAAAUA [JR_Exc004_Sub301] — within 1.5-fold, 45.5 nM
- GGAGGCCAAGGAUAUACAUGAGGAUCACCCAUGUGAGAGAAAAAAGUGAGAAAGAAAAGUAGAAGGUGGUUUCG [salish99-ex3-129] — 1.7-fold higher, 65.4 nM
- AAAAAUCGAGGAUAUACAUGAGGAUCACCCAUGUCAGAAAAUGACUACACAAAAGAAAGUAGAAGGCGAUAAAA [Ex 3 May 18] — within 1.5-fold, 29.4 nM
